Assays:
[1] = Release of BSA-FITC from wet silica sol-gel suspended in 3% HPMC hydrogel or buffer (dialysis tubes); assay type: physicochemical; conditions: BSA-FITC in silica hydrogel (SiO2 8%), equal volume of release buffer or 3% HPMC; PBST+0.1% BSA at 37° C.
Description: In a preliminary test it was evaluated if the use of hydrogel of 3% w/v HPMC as diluent for the suspension of silica nanoparticles influences the release of a protein incorporated therein. To this purpose, preparations constituted by silica hydrogel having incorporated the model protein BSA-FITC, suspended in an equal volume of release buffer or t 3% HPMC, were inserted in dialysis tubes (cut-off 100 KDa) and immersed in PBST+0.1% BSA at 37° C. At programmed time points the content of BSA-FITC was quantified in the acceptor solution by fluorescence spectroscopy.

MDCK cells = assay: Scatter assay on MDCK cells; assay type: cell-based, canine; conditions: solution of release from gel at SB3 50 μg/mL; similar to recombinant SB3 positive control (CTR+)
Description: The results were represented graphically by tracing the ratio between the amount of protein released in each time point (Mt) and the total protein (Mtot) incorporated in function of time. The released functional capability of SB3 was verified by scatter assay, as previously reported (Quarta et al. J Pathol 2010; 221:343-356). In detail, canine kidney cells Madin-Darby (MDCK) (5×10^3 cells/well), were treated with two different dilutions of SB3 released by the wet silica microspheres for 5 and 24 hours. The cells were fixed in 4% formaldehyde, coloured with blue solution of Coomassie and the scattering effect was analysed by using the Axiovert 200M microscope (Carl Zeiss Microscopy GmbH, Germania). As positive control, SB3 recombinant at 200 ng/ml was used.

[2] = Release of SB3 from wet silica sol-gel into buffer (ELISA quantification); assay type: physicochemical; conditions: wet silica sol-gel (8% SiO2 w/w), crushed manually; gels loaded at SB3 5 and 50 μg/mL; immersion in buffer at 37
Description: 200 μl of the prepared product containing SB3 in silica hydrogel were suspended in 10 mL of phosphate buffer 100 mM, 0.05% Tween 20, 0.1% BSA, pH 6.0 and incubated at 37° C. under slight stirring. At defined time moments (0 h, 5 h and 24 h) the sample was centrifuged (1390 g) and a small portion of supernatant (250 μl) was removed by titration of SB3 and replaced with fresh buffer. The compound was then re-suspended in the supernatant by a slight vortex and the incubation at 37° C. was continued until the subsequent moment. The concentration of SB3 in the supernatants was quantified by sandwich ELISA (kit HEPA Lisa, Xeptagen S.p.A, Vega Park, Venice) by following the manufacturer's instructions. […] After washing, the concentration of SB3 was detected by incubation with 100 μL of anti-SB3 secondary Ab conjugated with streptavidin HRP (0.5 μg/mL). The plate was developed with a solution of substrate 3,3′,5,5′-tetramethylbenzidin (TMB) ready for use. The reaction was interrupted with 1 mol/L of HCl (100 μL) and the absorbance at 450 nm was measured on a reader of microplates (Victor×3; Perkin Elmer, Waltham, MA, USA). […]

Molecule	Release profiles in presence or absence of HPMC hydrogel [1]	Scattering of cohesive cell colonies (MDCK cells)	Mechanism of SB3 release (Mt/Mtot % vs square root of time, linear correlation) [2]
BSA-FITC: model protein BSA-FITC incorporated in silica hydrogel	almost superimposable		
SB3: human SerpinB3 protease inhibitor protein, produced recombinantly; incorporated in wet silica sol-gel (8% SiO2) (protein, UniProt P29508 1-390, looked up) Serpin B3: MNSLSEANTKFMFDLFQQFRKSKENNIFYSPISITSALGMVLLGAKDNTAQQIKKVLHFDQVTENTTGKAATYHVDRSGNVHHQFQKLLTEFNKSTDAYELKIANKLFGEKTYLFLQEYLDAIKKFYQTSVESVDFANAPEESRKKINSWVESQTNEKIKNLIPEGNIGSNTTLVLVNAIYFKGQWEKKFNKEDTKEEKFWPNKNTYKSIQMMRQYTSFHFASLEDVQAKVLEIPYKGKDLSMIVLLPNEIDGLQKLEEKLTAEKLMEWTSLQNMRETRVDLHLPRFKVEESYDLKDTLRTMGMVDIFNGDADLSGMTGSRGLVLSGVLHKAFVEVTEEGAEAAAATAVVGFGSSPTSTNEEFHCNHPFLFFIRQNKTNSILFYGRFSSP		induced the 20 time-depending scattering of strictly cohesive colonies of MDK cells	takes place through a diffusion process
